From patent US20240002500A1 (GUANGDONG FAPON BIOPHARMA, published 2024) come the findings set out here.

For assay [1], the target named is T1, hTIGIT-hFc (human, UniProt Q495A1 22-141).
T1 construct: also called antigen protein hTIGIT-hFc; human TIGIT recombinant protein carrying a human Fc tag; not shown: human Fc tag
T1 sequence (looked up): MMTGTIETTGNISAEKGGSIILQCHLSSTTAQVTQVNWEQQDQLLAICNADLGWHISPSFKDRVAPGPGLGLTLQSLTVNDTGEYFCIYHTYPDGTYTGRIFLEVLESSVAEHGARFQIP
In words: FACS blocking: hTIGIT-hFc bound on U2-OS cells (PVR and CD112), then antibody, APC anti-human IgG Fc; first row of the table, row head not printed (fits the midpoint of the Tigit-5 curve; like table in Fig. 6A); unit from the x axis Log[µg/mL]. As for the experimental part: (§1) U2-OS cells to be detected (human osteosarcoma cells, naturally and highly expressing PVR and CD112 by means of detection) were counted; centrifugated at 300 g for 5 min; resuspended with an FCM buffer; and cell density was adjusted to 4E+06 cell/mL for later use. […] According to an experimental design, in each well, 50 μL of the antigen protein and 50 μL of the cell (the volume of each cell added into a 96-well V-shaped plate being 2E+05 cell/well) were respectively added in the 96-well V-shaped plate; and incubation was performed in dark on ice for 30 min. Centrifugation (300 g/5 min) was performed; supernatant was discarded; 200 μL of the FCM buffer was added for washing once; centrifugation (300 g/5 min) was performed; and the supernatant was discarded. The antibody was added to the 96-well V-shaped plate (in 100 μL/well); and incubation was performed in dark on ice for 30 min. Centrifugation (300 g/5 min) was performed; supernatant was discarded; 200 μL of the FCM buffer was added for washing once; centrifugation (300 g/5 min) was performed; and the supernatant was discarded. Secondary antibodies (APC anti-human IgG Fc, 1:500 dilution) were added to the 96-well V-shaped plate (in 100 μL/well); and incubation was performed in dark on ice for 30 min. […]

For assay [2], the target named is T2, full-length human TIGIT on cells (human, UniProt Q495A1 22-244).
T2 construct: whole, on cells; The same protein is used for CHO-hTIGIT, PBMC and NK92-hTIGIT; the cells are named under assay; also called CHO-hTIGIT; hTIGIT
T2 sequence (looked up): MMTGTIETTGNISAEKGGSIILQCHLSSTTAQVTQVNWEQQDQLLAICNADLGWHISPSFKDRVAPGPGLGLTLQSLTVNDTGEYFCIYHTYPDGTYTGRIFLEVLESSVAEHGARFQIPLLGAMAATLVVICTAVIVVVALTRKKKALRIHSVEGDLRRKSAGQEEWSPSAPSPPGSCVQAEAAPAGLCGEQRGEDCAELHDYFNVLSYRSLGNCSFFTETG
The assay is described as follows: FACS titration on PBMC of healthy people (natural TIGIT); unit taken from the x axis Log[µg/mL]; the curve still rises at the highest concentration (MFI about 11000 at log 1), no plateau, the fitted value lies outside the range shown. Here is the method: (§2) In order to verify that the prepared anti-human TIGIT antibody may effectively bind to naturally expressed TIGIT, the following experiments were specifically performed. PBMC cells in healthy people to be detected were counted, centrifuged at 300 g for 5 min, resuspended with an FCM buffer; and cell density was adjusted to 4E+06 cell/mL for later use. Samples to be detected (including a positive control antibody and a mouse monoclonal antibody) were diluted with the FCM buffer to 20 μg/mL, and then the FCM buffer was used to perform 3× serial dilutions of 12 concentration points; and the isotype control antibody was diluted with the FCM buffer to 20 μg/mL. According to an experimental design, in each well, 50 μL of the antibody and 50 μL of the cell (the volume of each cell added into a 96-well V-shaped plate being 2E+05 cell/well) were respectively added in the 96-well V-shaped plate; and incubation was performed in dark on ice for 30 min. Centrifugation (300 g/5 min) was performed; supernatant was discarded; 200 μL of the FCM buffer was added for washing once; centrifugation (300 g/5 min) was performed; and the supernatant was discarded. […] Centrifugation (300 g/5 min) was performed; supernatant was discarded; 200 μL of the FCM buffer was added for washing once; centrifugation (300 g/5 min) was performed; and the supernatant was discarded. […]

Assay [3] addresses T1, hTIGIT-hFc. The assay is described as follows: FACS blocking: hTIGIT-hFc bound on U2-OS cells (PVR and CD112), then antibody, APC anti-human IgG Fc. Here is the method:
as §1

Assay [4] concerns the target T1, hTIGIT-hFc. The assay is described as follows: FACS blocking: hTIGIT-hFc bound on CHO-hCD112 cells, then antibody, APC anti-human IgG Fc; blocked partner CD112; unit as printed on the x axis, Log(uM); the method's top concentration of 20 µg/mL and the nM values of Fig. 5B speak for nM. As for the experimental part:
as §1, with “The CHO-engineered cell CHO-hCD112” for “U2-OS”, “recombinantly” for “to be detected (human osteosarcoma cells, naturally and highly”, “full-length human” for “PVR and”, “CD112” for “CD112 by means of detection)”

Assay [5] has as its target T2, full-length human TIGIT on cells. The assay is described as follows: FACS titration on PBMC of healthy people (natural TIGIT); table under the plot, unit taken from the x axis Log[µg/mL]. Here is the method: as §2

B1: Tigit-5 mouse monoclonal antibody (antibody, V domains shown)
VH: QVQLQQPGAELVRPGASVKLSCKASGYSFTSYWMNWVKQRPGQGLEWIGMIRPSDSETRLNQMFKDKATLTVDKSSSTAYMQLSSPTSDDSAVYYCAGIHDYGHGAYWGQGTLVTVSA
VL: DIQMIQSPASLSVSVGETVTITCRASENIYSNLAWYQQKQGKSPQLLVYAASHLPDGVPSRFSGSGSGTQYSLKINSLQSEDFGSYYCQHFWGTPRTFGGGTKLEIKR
notes: Mouse monoclonal antibody from hybridoma
A word on the IC50: it is the point on the concentration scale where inhibition reaches its midpoint. Low values mean greater potency in that assay, high ones weaker potency in that assay. For orientation: EC50 means the concentration at which the effect is half-maximal. Low readings indicate higher potency in that assay, high ones lower potency in that assay. Regarding B1, the IC50 with hTIGIT-hFc [1] was determined as 0.335 µg/mL. Further, the EC50 in assay [2] was roughly 310 µg/mL.

B2: 14Tigit-1-1 mouse monoclonal antibody (antibody, V domains shown)
VH: DVQLQESGPGLVKPSQSLSLTCTVTGYSITSDYAWNWIRQFPGNKLEWMGYISYSGSTRSNPSLKSRISITRDTSKNQFFLQLNSMTAEDTATYYCGGWEVRNYYAMDYWGQGTSVTVSS
VL: DIVMTQSHKFMSTSVGDRVSITCKASQHVSTAVAWYQQKPGQSPKLLIYSASYRYTGVPDRFTGSGSGTDFTFTISSVQAEDLAVYYCQQHYNTPWTFGGGTKLEIKR
notes: as for B1
As to B2, the IC50 with hTIGIT-hFc [3] stood at 0.00252 µM; with hTIGIT-hFc [4], 2.6 µM.

B3: 3Tigit-16 mouse monoclonal antibody (antibody, V domains shown)
VH: EVQLQQSGPELVKPGASVKMSCKASGFTFTDYFMDWVKQSRGASFEWIGRLNPNNGRTSYNQKFKGKATLTVDKSSSTAYMELNSLTSEDSAVYYCARGDLGRWYFDVWGAGTTVTVSS
VL: QIVLTQSPAIMSASPGEKVTMTCSASSSVSYMHWYQQKSGTSPKRWIYDTSKLASGVPTRFSGSGSGTSYSLTISSMEAEDAASYFCQQWSSNSLTFGAGTKLELKR
notes: as for B1
As for B3, in assay [5], the response was half-maximal at 0.0247 µg/mL (EC50).

B4: 3Tigit-29 mouse monoclonal antibody (antibody, V domains shown)
VH: EVQLQQSGPELVKPGASVKISCKASGYTFTDYNMHWVKQSLGKSLEWIGYVNSFNGNTGYSQKFKSKVTLTVDRSSRTAYMDLRSLTSEDSAVFYCARSSRGGFAYWGQGTLVTVSA
VL: QIVLTQSPAIMSASPGEKVTMTCSASSSVSYMHWYQQKSGTSPKRWIYDTSKLASGVPARFSGSVSGTSYSLTISSMEAEDAATYYCQQWSSNSLTFGAGTKLELKR
notes: as for B1
Molecule B4 registered a concentration for a half-maximal effect (EC50) in assay [5] of 0.0217 µg/mL.
